Measurements from US8497072.

Target: soluble amyloid precursor protein alpha (UniProt P05067)
Assay: sandwich ELISA, EC50 of this antigen divided by EC50 of Aβ(1-42) globulomer

| Binder | selectivity factor (EC50 ratio against Aβ(1-42) globulomer) [fold] |
| --- | --- |
| monoclonal antibody 8C5 (antibody, V domains shown) VH: EVQLVESGGGLVQPGGSLKLSCTASGFTFSSYGMSWVRQTPDKRLELVASIKNNGGSTYYPDSLKGRFTISRDNAKNTLYLQMSSLKSEDTAMYYCASGDYWGQGTTLTVSS VL: DVVMTQTPLSLPVSLGDQASISCRSSQSLVHSNGDTFLHWYLQKPGQSPKLLIYKVSNRFSGVPDRFSGSGSGTDFTLKISRVEAEDLGIYFCSQSIHVPWTFGGGTKLEIKR | > 100 |
| monoclonal antibody 8F5 (antibody, V domains shown) VH: EVQLVESGGGLVQPGGSLKLSCAASGFTFSSYGMSWVRQTPDKRLELVASINSNGGSTYYPDSVKGRFTISRDNAKNTLYLQMSSLKSEDTAMYYCASGDYWGQGSTLTVSS VL: DVVMTQTPLSLPVSLGDQASISCRSSQSLVYSNGDTYLHWYLQKPGQSPKLLIYKVSNRFSGVPDRFSGSGSGTDFTLKISRVEAEDLGVYFCSQSTHVPWTFGGGTKLEIKR | > 100 |
